Experimental data as given in patent publication US9394371 (Scripps Research, dated 2016).

Key:
[1] = molecular target: AIP-1 (S. aureus I native cyclic signaling peptide) (Staphylococcus aureus); assay: competition ELISA on AP1-BSA
[2] = molecular target: T1, AIP-3 (S. aureus III native cyclic signaling peptide) (Staphylococcus aureus); assay: competition ELISA on AP1-BSA
T1 construct: also called AIP3 wt; AIP-III

Row | Binder | Kd [1] | Kd [2]
1 | 3B1 (antibody, V domains shown) VH: QVQLQESGPGLVKPSETLSLTCTVSGGSISSYYWSWIRQPPGKGLEWIGYIYYSGNTNSNPSLKSRVTISVDTSKNQFSLKLSSVTAADTAVYYCARTYYDSSGYYYRAFDIWGQGTMVTVSS VL: DIQMTQSPSSLSASEGDRVTITCRASQGIRNDLGWYQQKPGKAPKRLIYAASSLQSGVPLRFSGSGSGTEFTLTISSLQPEDFATYYCLQYNSYPWTFGQGTKVEIKR | ~6 µM | 
2 | AP1-15B4 (antibody, V domains shown, also called mAb AP1-15B4; AP1 Sups 15B4) VH: EVHLVESGGDLVKPGGSLKLSCAASGFAFSDFAMSWVRQTPEKRLEWVAIIKSDDSYTYYPDSVRDRFTISRDNARNTLYLQMTSLRSEDTALYYCTKIYDAYFYAMDYWGQGTSVTVSS VL: DIVRTQSPLSLSVSLGDQASISCRSSQSLLHSNGNTYLHWYLQKPGQSPKLLIYKVSNRFSGVPDRFSGSGSGTDFTLKISILEAEDLGIYFCSQSTHFPTFGGGTKLEIK |  | ~1 µM
